The chains are these.
B1: Nb17 (VHH)
VHH: HVQLVESGGGLVQAGGSLRLSCAASGSIFSSNAMSWYRQAPGKQRELVASITSGGNADYADSVKGRFTISRDKNTVYPEMSSLKPADTAVYYCHAVGQEASAYAPRAYWGQGTQVTVS
B2: Nb9 (VHH)
VHH: HVQLVESGGGLVQTGGSLRLSCAFSGYTFSTFPTAWFRQAPGKEREFVAGIRWNGGSRDYTEYADFVKGRFTISRDNAKNMIYLQMISLKPEDTALYYCAASHGVVDGTSVNGYRYWGQGTQVTVS
B3: Nb105 (VHH)
VHH: HVQLVESGGGLVQAGGSLRLSCAVSGRTFSTYGMAWFRQAPGKERDFVATITRSGETTLYADSVKGRFTISRDNAKNTVYLQMNSLKIEDTAVYYCAVRRDSSWGYSRDLFEYDYWGQGTQVTVS
B4: humanized Nb21 (hNb21) (VHH)
VHH: QVQLVESGGGLVQPGGSLRLSCAASWFRRAPGKEREFVAYADSVKGRFTISRDNAKNTLYLQMNSLRAEDTAVYYCAAWGQGTLVTVS
B5: Nb64 (VHH)
VHH: QVQLVESGGGLVQAGGSLRLSCAVSGRTFSIAGMGWFRQAPGKDREFLGGITWNDGTTWYADSVKGRFTISRDNAKNMLSLRMNSLKPEDTAVYYCAAGPRLGSTPRAYDYWGQGTQVTVS
B6: Nb95 (VHH)
VHH: QVQLVESGGGLVQAGGSLRLSCAASGRTFSSYSMGWFRQAQGKEREFVATINGNGRDTYYTNSVKGRFTISRDDATNTVYLQMNSLKPEDTAIYYCAADKDVYYGYTSFPNEYEYWGQGTQVTVS
B7: Nb93 (VHH)
VHH: EVQLVESGGGLVQPGGSLRLSCAASGFTFSSYAMSWVRQAPGKGREWVAGITPGSGTFYADSVKGRFTISRDNAKNTLSLEINSLKPEDTALYYCAKCRQEFSWDFSSRDPDDFDYWGQGTQVTVS
B8: Nb34 (VHH)
VHH: DVQLVESGGGLVQAGGSLRLSCAASGFTFSNYVMYWGRQAPGKGREWVSGIDSDGSDTAYASSVKGRFTISRDNAKNTLYLQMNNLKPEDTALYYCVKSKDPYGSPWTRSEFDDYWGQGTQVTVS
B9: Nb21 WT (VHH)
VHH: QVQLVESGGGLVQAGGSLRLSCAVSGLGAHRVGWFRRAPGKEREFVAAIGANGGNTNYLDSVKGRFTISRDNAKNTIYLQMNSLKPQDTAVYYCAARDIETAEYTYWGQGTQVTVSS

The first assay has as its target RBD (SARS-CoV-2 spike) (SARS-CoV-2, UniProt P0DTC2 319-541). As to the kind of experiment: ELISA. A general note: An ELISA detects its analyte on a solid surface through an enzyme-linked reagent.
The term EC50 denotes the concentration that produces a half-maximal response. B1 returned a concentration for a half-maximal effect (EC50) of 0.97 nM.

B2 came in with an EC50 of 2.76 nM. This EC50 is about 2.8-fold higher than that of the molecule before.

Regarding B3, the concentration giving a half-maximal response (EC50) came to 1.69 nM. Compared with the last molecule, the EC50 is about 1.6-fold lower.

Regarding B4, a half-maximal effect (EC50) was put at 1.34 nM.

B5: the midpoint of the response, the EC50, lay at 1.22 nM.

With B6, it took 3.77 nM to reach a half-maximal effect (EC50).

In the case of B7, the EC50 came out at 1.13 nM.

B8 came in with an EC50 of 0.53 nM.

The target in another assay is RBD (SARS-CoV-2, UniProt P0DTC2 319-541). As to the kind of experiment: ELISA.
Molecule B9 registered an EC50 of 1.69 nM.

The values above are taken from US20250336476A1 (published 2025).
